Measured values reported in the supplement of paper PMC9170038.

Tested on: MS2 coat protein
Experiment: apparent KD of MS2 coat protein; designed switch direction (-1 OFF switch, 1 ON switch): 1; higher = weaker reporter binding
How it was run: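 SNAP-549-labelled MS2 coat protein was titrated, doubling from 0.7 or 1.5 nM to 3 µM, over designed RNA switches transcribed on Illumina chips by stalled E. coli RNA polymerase. Runs were done without input, with 200 uM small-molecule ligand, or with an oligonucleotide input. Apparent KD is the per-design median over clusters of curve-fitted normalised fluorescence.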

[1] = Eterna round: R95, input ligand: microRNA oligo, concentration not stated
[2] = Eterna round: R95, input ligand: FMN 200 uM
[3] = Eterna round: R95, input ligand: none
[4] = input ligand: microRNA oligo, concentration not stated

Sequence	apparent KD of MS2 coat protein [1] [µM]	apparent KD of MS2 coat protein [2] [µM]	apparent KD of MS2 coat protein [3] [µM]	apparent KD of MS2 coat protein (input ligand: FMN 200 uM) [µM]	apparent KD of MS2 coat protein [4] [µM]	apparent KD of MS2 coat protein (input ligand: none) [µM]
AUUAAACAUGAGGAUCACCCAUGUAAUAUUAUGGGAGGAUAUGCGAAUUUAAUUAAUUAAGCAGAAGGCCUAAUUA [Mat - Same State 1 - D101] (puzzle: Same State 1)	0.106					
AUUAAACAUGAGGAUCACCCAUGUCAACAAUGUCGAGGAUAUGGGCAAAUAAAAUAAGAACCAGAAGGCGAAUAAU [salish99_ss1_r3_076] (puzzle: Same State 1)	0.426	0.0399	0.303			
AUUAAUAAUCGAGGAUAUCACGUCGAAUAGACGUGAGAAGGCGAUCAUAACAUGAGGAUCACCCAUGUAUUACAUGAAAUUAAU [SSNG1/4-B4] (Eterna round: R96, puzzle: Same State NG 1)				0.0224	0.0205	0.0381
AUUAAUAAUCUAGGAUAUCACGUCGAUUAGACGUGAGAAGGAGAUCAUAACAUGAGGAUCACCCAUGUAUUACAUGAAGUUAAU [SSNG1/7-B2] (Eterna round: R96, puzzle: Same State NG 1)				0.0275	0.0288	0.0381
AUUACUAACAUAGGAUAUCAUGCGAAAAUUGCGUGAGAAGGGUGGACACUGUCAUUCUCGGAGCACAUGAGGAUCACCCAUGUG [SameState NG1 #70] (Eterna round: R96, puzzle: Same State NG 1)				0.0806	0.0424	0.059
AUUACUAACAUAGGAUAUCAUGCGAAAAUUGCGUGAGAAGGGUGGACACUGUCUUUCUCGGAGCACAUGAGGAUCACCCAUGUG [SameState NG1 #69] (Eterna round: R96, puzzle: Same State NG 1)				0.0814	0.0415	0.065
AUUAGUGGUGGAGGAUAUGGGAAAGGAAGUGUACUAGAAGGCCACCGCCCUCUAGCACAUGAGGAUCACCCAUGUAUAGAGCCC [PowerStrip SSNG 1.14] (Eterna round: R96, puzzle: Same State NG 1)				0.243	0.0258	0.0882
AUUAUAAAUGCAGGAUAUGAUUAACAUGAGGAUCACCCAUGUGGUGUUGUGAGUAAGGAGAGUGAUCAGAAGGGCAUUUUUUUU [JMF's solution 24] (Eterna round: R96, puzzle: Same State NG 2)				0.62	0.343	0.555
AUUAUUAAUGCAGGAUAUGAUUAACAUGAGGAUCACCCAUGUGGUGUUGUGAGUAAGGAGAGAGAUCAGAAGGGCAUUUUUUUU [JMF's solution 5] (Eterna round: R96, puzzle: Same State NG 2)				0.317	0.263	0.361
AUUAUUUAUGCAGGAUAUGAUUAACAUGAGGAUCACCCAUGUGGUGUUGUGAGUAAGGAGAGUGAUCAGAAGGGCAUUUUUUGU [JMF's solution 54] (Eterna round: R96, puzzle: Same State NG 2)				0.713	0.531	0.464
AUUGCUAGCGCAGGAUAUGAUGCGAAAAUUGCGUCAGAAGGGUGUACUCUCUCAUUGCGGGAGGACAUGAGGAUCACCCAUGUC [SameState NG1 #83] (Eterna round: R96, puzzle: Same State NG 1)				0.0666	0.0715	0.0833
AUUGCUUACGCAGGAUAUGAUGCGAAAAUUGCGUCAGAAGGGUGAAGUGACUCGUUGCAACAGGACAUGAGGAUCACCCAUGUC [SameState NG1 #91] (Eterna round: R96, puzzle: Same State NG 1)				0.089	0.127	0.141
AUUUAACAAGCUUUUUGCUCGUCUUAUAAACAUGAGGAUCACCCAUGUAAUAGCGUGAGAGUAAAUAUUUAAAUAAU [JMF 93] (puzzle: Sensor for hsa-mir-208a)	0.0483	0.0145	0.0111			
AUUUUUAAUGCAGGAUAUGAUUAACAUGAGGAUCACCCAUGUGGUGUUGUGAGUAAGGAGAGUGAUCAGAAGGGCAUCUUUUUU [JMF's solution 81] (Eterna round: R96, puzzle: Same State NG 2)				0.567	0.529	0.49
AUUUUUAAUGCAGGAUAUGAUUAACAUGAGGAUCACCCAUGUGGUGUUGUGAGUAAGGAGAGUGAUCAGAAGGGCAUUUUUUCU [JMF's solution 88] (Eterna round: R96, puzzle: Same State NG 2)				0.34	0.391	0.5
CAAGAAAACGCAGGAUAUACCCGAACAACCCGGGUAGAAGGGUGACACAUGAGGAUCACCCAUGUACAUGGCAUUAGCCAUGGA [Esusxebeis] (Eterna round: R96, puzzle: Same State NG 1)				1.02	0.262	0.43

Sequence	apparent KD of MS2 coat protein [1] [µM]	apparent KD of MS2 coat protein [2] [µM]	apparent KD of MS2 coat protein [3] [µM]	apparent KD of MS2 coat protein (input ligand: FMN 200 uM) [µM]	apparent KD of MS2 coat protein [4] [µM]	apparent KD of MS2 coat protein (input ligand: none) [µM]
CAAGGGUACGGAUUAGUACAUGAGGAUCACCCAUGUAUCCGACAGGAUAUCAUGUAAGAAGCCAGUGAGAAGGGUCUAGUCCAA [Eternabot solution 43] (Eterna round: R96, puzzle: Same State NG 3)				0.367	0.205	0.46
CACGUCCAGGUAGGAUAUGAGGUGCCAUAGGGAACAGCCUAUGGACAUGAGGAUCACCCAUGUCCUCAGAAGGGCCAGACGUGA [Rasote] (Eterna round: R96, puzzle: Same State NG 2)				0.0257	0.116	0.171
CAGCGCUGCCGGGAGGAUAUGCGGUGAUGGACAUGAGGAUCACCCAUGUUAGCGGUAGCAUUACGGCAGAAGGCCCUGCAGCUGC [Soteed Omei mod 1] (puzzle: Same State 2)	0.0123	0.0109	0.0123			
CAGCGCUGUCGAGAGGAUAUGCGGUGAUGGACAUGAGGAUCACCCAUGUUAGCGAUAGCAUUACUGUAGAAGGCUCUACAGCUGC [JL-ss2-3.08 ViennaUCT mod] (puzzle: Same State 2)	0.0243					
CAUUCUUUUCCGGAGGAUAUGCUACCCUUUACAUGAGGAUCACCCAUGUUACCCUCUUCUUGUCAGUAGAAGGCCGUUUCUUAAC [Regan] (puzzle: Same State 2)	0.0273					
CCAAUGUACAAUUUAGAUCUACAUGAGGAUCACCCAUGUACAGAGGAUAUCAGCUCGAAUAGAGCUGAGAAGGCUGAAUUAAUU [SSNG3/3-A1] (Eterna round: R96, puzzle: Same State NG 3)				0.0882	0.153	0.226
CCCGUCUACAGAAAGGUAGAUGGGAAUGUACAUGAGGAUCACCCAUGUUAAUAUGAGUUUGUUGAUAAUUAUGAAUU [Modxample 50 - Jieux - Sensor for bsa-mir-208a] (Eterna round: R96, puzzle: Sensor for hsa-mir-208a)				0.0197	0.0189	0.0244
CCCUGAGGUAGCCCACAGGGACAUGAGGAUCACCCAUGUACACAGGAUAUCGAGGGCUCCGCCUUCGAGAAGGGUGAUCAAACU [Geditedi] (Eterna round: R96, puzzle: Same State NG 3)				0.148	0.0182	0.0534
CCGAGUGGCGUACAGGAUAUGUUGCAUGGAACAUGAGGAUCACCCAUGUAUUUGCUCCCGCAUACGCAGAAGGGUGCGUCCUGGG [Arraquorso] (Eterna round: R96, puzzle: Same State 2)				0.025	0.0314	0.0469
CCGAUAAUUGGAGGAUAUGGAGCCUUAUUGGCUCCAGAAGGCUAUAAACAUGAGGAUCACCCAUGUCGGCGGUCUAAUGACCGA [Eli NG1ss - 50] (Eterna round: R96, puzzle: Same State NG 1)				0.028	0.0366	0.0604
CCGAUGUGGGUACAGGAUAUGUGGGCCUCCACAUGAGGAUCACCCAUGUCGGAGGCAAAGCGGCUACAGAAGGGUGCGAGCUCGA [Xeanza] (puzzle: Same State 2)	0.00928					
CCGAUUUAUGGAGGAUAUGGAGCCUUAUUGGCUCCAGAAGGCUAAUAACAUGAGGAUCACCCAUGUCGGCGGUCUAAUGACCGA [Eli NG1ss - 52] (Eterna round: R96, puzzle: Same State NG 1)				0.0392	0.0475	0.0916
CCGGUUUAUGGAGGAUAUGGAGCCUUAUUGGCUCCAGAAGGCUAAACAUGAGGAUCACCCAUGUUACCGGCGGUCAAUAGACCG [Eli NG1ss - 60] (Eterna round: R96, puzzle: Same State NG 1)				0.0118	0.0205	0.0231
CCUUGUAGCGGAGGAUAUGGGCCUCACUCAGUCAAAGAGUGAGAAACAUGAGGAUCACCCAUGUCCCAGAAGGCCGCUGCUUGG [Estiveveza] (Eterna round: R96, puzzle: Same State NG 2)					0.0123	
CGAUGAUACUUAGGAAAGAGAGUAGAGGAACAUGAGGAUCACCCAUGUAUGAGCUUUUUGCUCGUCAUGAACAGGAA [JR_SHM208a_Sub008] (puzzle: Sensor for hsa-mir-208a)	0.0624	0.0886	0.168			
CGGCGCUGUCGAGAGGAUAUGCGGUGAUGGACAUGAGGAUCACCCAUGUUAGCGAUAGCAUUACGGUAGAAGGCUCUAUAGUUGC [Soteed Omei mod 9] (puzzle: Same State 2)	0.248					
